No end group written: not given here. *: point of attachment. NH(CH2)5NH2 = NCCCCCN*
B3: E. coli CsgG (wild-type) fused C-terminally to a Strep-II tag, outer membrane pore (other)
chain: CLTAPPKEAARPTLMPRAQSYKDLTHLPAPTGKIFVSVYNIQDETGQFKPYPASNFSTAVPQSATAMLVTALKDSRWFIPLERQGLQNLLNERKIIRAAQENGTVAINNRIPLQSLTAANIMVEGSIIGYESNVKSGGVGARYFGIGADTQYQLDQIAVNLRVVNVSTGEILSSVNTSKTILSYEVQAGVFRFIDYQRLLEGEVGYTSNEPVMLCLMSAIETGVIFLINDGIDRGLWDLQNKAERQNDILVKYRHMSVPPES
modifications: N-terminal lipidation of mature CsgG (Cys at the N-terminal position)
notes: Nonameric pore; dimers of nonamers also seen; also called CsgG-Strep; CsgG-strep; not shown: C-terminal Strep-II tag

Tests used:
[1] = biological target: T1, CsgG Y51A/N55V/F56Q/N91R/K94Q/R97W-del(V105-I107) pore containing the C terminal strep tag (E. coli, UniProt P0AEA2 16-277); experiment: reconstitution with synthetic peptide, electrophysiology
T1 construct: Oligomeric CsgG pore; also called Y51A/F56Q/N55V/N91R/K94Q/R97W-del(V105-I107); not shown: C-terminal Strep tag
T1 chain: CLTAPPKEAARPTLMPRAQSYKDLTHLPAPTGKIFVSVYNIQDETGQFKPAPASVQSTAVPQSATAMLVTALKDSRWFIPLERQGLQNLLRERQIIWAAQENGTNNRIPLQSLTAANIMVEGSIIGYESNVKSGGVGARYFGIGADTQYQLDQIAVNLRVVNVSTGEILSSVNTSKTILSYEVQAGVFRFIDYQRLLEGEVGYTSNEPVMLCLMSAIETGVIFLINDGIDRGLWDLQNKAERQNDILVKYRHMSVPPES

[2] = biological target: B3; experiment: in vitro reconstitution (2:1 molar ratio), StrepTactin pull down, native PAGE with fluorescence
[3] = biological target: T2, CsgG Y51A/F56Q/K94Q/R97W/R192D-del(V105-I107), Strep-tagged (E. coli, UniProt P0AEA2 16-277); experiment: as above
T2 construct: Oligomeric CsgG pore; also called CsgG mutant with altered constriction; not shown: Strep tag
T2 chain: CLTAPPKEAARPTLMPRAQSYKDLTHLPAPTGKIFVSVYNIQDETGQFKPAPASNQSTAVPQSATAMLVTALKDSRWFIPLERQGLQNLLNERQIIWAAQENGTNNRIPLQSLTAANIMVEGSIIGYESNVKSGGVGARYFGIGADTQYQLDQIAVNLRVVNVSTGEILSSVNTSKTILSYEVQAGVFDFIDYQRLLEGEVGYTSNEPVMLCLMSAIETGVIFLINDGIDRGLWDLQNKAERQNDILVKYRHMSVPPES

[4] = biological target: B3; experiment: co-expression, Strep affinity purification, anti-His dot blot
[5] = biological target: the molecule itself; experiment: size exclusion chromatography (Superose 6); pore-pore dimer
[6] = biological target: T3, CsgG Y51A/F56A/N91R/K94Q/R97W-del(V105-I107) pore containing the C terminal strep tag (E. coli, UniProt P0AEA2 16-277); experiment: panel D; in vitro reconstitution; DNA translocation current recording
T3 construct: not shown: C-terminal Strep tag
T3 chain: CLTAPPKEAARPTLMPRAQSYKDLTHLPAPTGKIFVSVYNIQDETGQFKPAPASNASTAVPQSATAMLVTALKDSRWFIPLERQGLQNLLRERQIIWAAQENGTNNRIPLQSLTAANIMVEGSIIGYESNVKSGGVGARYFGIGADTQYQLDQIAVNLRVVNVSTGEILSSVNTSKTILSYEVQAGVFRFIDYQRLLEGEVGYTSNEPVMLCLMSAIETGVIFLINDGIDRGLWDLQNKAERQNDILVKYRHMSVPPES

[7] = biological target: T4, CsgG Y51S/N55V/F56Q/N91R/K94Q/R97W-del(V105-I107) pore containing the C terminal strep tag (E. coli, UniProt P0AEA2 16-277); experiment: panel F; in vitro reconstitution; DNA translocation current recording
T4 construct: also called Y515/N55V/F56Q/N91R/K94Q/R97W-del(V105-I107) (sic); not shown: C-terminal Strep tag
T4 chain: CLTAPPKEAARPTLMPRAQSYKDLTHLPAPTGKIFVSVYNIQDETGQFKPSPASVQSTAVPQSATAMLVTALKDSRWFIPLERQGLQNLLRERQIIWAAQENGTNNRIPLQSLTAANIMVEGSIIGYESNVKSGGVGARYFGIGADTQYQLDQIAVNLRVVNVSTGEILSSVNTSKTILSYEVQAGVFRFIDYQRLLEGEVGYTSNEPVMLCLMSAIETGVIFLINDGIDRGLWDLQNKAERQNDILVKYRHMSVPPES

[8] = biological target: T1, CsgG …; experiment: in vitro reconstitution; DNA translocation current recording
[9] = biological target: T5, CsgG Y51T/N55V/F56Q/N91R/K94Q/R97W-del(V105-I107) pore containing the C terminal strep tag (E. coli, UniProt P0AEA2 16-277); experiment: panel B; in vitro reconstitution; DNA translocation current recording
T5 construct: not shown: C-terminal Strep tag
T5 chain: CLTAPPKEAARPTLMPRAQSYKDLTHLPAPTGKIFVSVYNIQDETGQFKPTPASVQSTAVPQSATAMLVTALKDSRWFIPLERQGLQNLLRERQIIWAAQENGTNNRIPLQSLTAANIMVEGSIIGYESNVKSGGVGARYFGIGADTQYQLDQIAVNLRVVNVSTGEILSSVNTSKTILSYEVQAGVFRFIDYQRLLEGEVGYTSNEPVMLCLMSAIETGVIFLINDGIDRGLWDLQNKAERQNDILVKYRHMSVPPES

[10] = biological target: T6, CsgG Y51A/N55I/F56Q/N91R/K94Q/R97W-del(V105-I107) pore containing the C terminal strep tag (E. coli, UniProt P0AEA2 16-277); experiment: panel C; in vitro reconstitution; DNA translocation current recording
T6 construct: also called Y51A/N551/F56Q/N91R/K94Q/R97W-del(V105-I107) (sic); not shown: C-terminal Strep tag
T6 chain: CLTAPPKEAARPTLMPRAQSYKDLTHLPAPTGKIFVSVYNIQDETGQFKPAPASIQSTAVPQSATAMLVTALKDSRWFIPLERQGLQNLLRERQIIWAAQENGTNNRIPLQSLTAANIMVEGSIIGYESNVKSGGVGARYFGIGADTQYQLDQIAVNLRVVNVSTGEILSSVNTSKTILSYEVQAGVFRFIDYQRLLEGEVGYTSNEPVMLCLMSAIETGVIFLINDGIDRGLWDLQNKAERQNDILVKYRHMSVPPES

[11] = biological target: the molecule itself; experiment: size exclusion chromatography (S200 increase) of Strep- and ion-exchange-purified CsgG pore; pore-pore dimer
[12] = biological target: B3; experiment: cryo-EM of co-purified or in vitro reconstituted CsgG:CsgF particles
[13] = biological target: T7, CsgG Y51A/F56Q/N91R/K94Q/R97W-del(V105-I107) pore containing the C terminal strep tag (E. coli, UniProt P0AEA2 16-277); experiment: co-expression, purification, TEV cleavage; DNA translocation current recording
T7 construct: Oligomeric CsgG pore; not shown: C-terminal Strep tag
T7 chain: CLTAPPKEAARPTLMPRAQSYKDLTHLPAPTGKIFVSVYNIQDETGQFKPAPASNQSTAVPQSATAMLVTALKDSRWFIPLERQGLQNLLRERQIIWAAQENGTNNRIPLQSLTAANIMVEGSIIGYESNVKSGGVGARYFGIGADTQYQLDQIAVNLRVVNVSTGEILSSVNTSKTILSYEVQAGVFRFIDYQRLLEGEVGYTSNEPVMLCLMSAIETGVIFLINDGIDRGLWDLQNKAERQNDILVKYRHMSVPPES

Question: Does GTMTFQFRNPNFGGNPNNGAFLLNSAQAQ [CsgF-(1-29) synthetic peptide] bind [1]?
Answer: binds

B1: Alexa 594-labelled synthetic CsgF peptide corresponding to the first 34 residues of mature CsgF (peptide)
peptide: GTMTFQFRNPNFGGNPNNGAFLLNSAQAQNSYKD-{NH(CH2)5NH2-Alexa594}
notes: also called CsgF N-terminal peptide; FCP
Question: Does B1 bind [2]?
Answer: binds

Question: Does B1 bind [3]?
Answer: binds

B2: CsgF 20:64 peptide with C-terminal 6xHis (from pNA100) (peptide)
peptide: GTMTFQFRNPNFGGNPNNGAFLLNSAQAQNSYKDPSYNDDFGIETHHHHHH
notes: first 45 residues of mature CsgF; also called CsgF fragment 1-64; CsgF 1-64
Question: Does B2 bind [4]?
Answer: binds

Question: Does B3 bind [5]?
Answer: binds

Question: What does the source list for GTMTFQFRNPNFGGNPSNGAFLLNSAQAQNSYKDP (also called CsgF-N175-(1-35) (sic)) [CsgF-N17S-(1-35) peptide]?
Answer: binding result [6]: binds; binding result [7]: binds; binding result [8]: binds; binding result [9]: binds; binding result [10]: binds

Question: Does GTMTFQFRNPNFGGNPVNGAFLLNSAQAQNSYKDP [CsgF-N17V-(1-35) peptide] bind [8]?
Answer: binds

B4: Pro-CP1-Eco-(WT-Y51A/F56Q/D149N/E185N/E201N/E203N-StrepII(C)) CsgG pore (other)
chain: CLTAPPKEAARPTLMPRAQSYKDLTHLPAPTGKIFVSVYNIQDETGQFKPAPASNQSTAVPQSATAMLVTALKDSRWFIPLERQGLQNLLNERKIIRAAQENGTVAINNRIPLQSLTAANIMVEGSIIGYESNVKSGGVGARYFGIGANTQYQLDQIAVNLRVVNVSTGEILSSVNTSKTILSYNVQAGVFRFIDYQRLLNGNVGYTSNEPVMLCLMSAIETGVIFLINDGIDRGLWDLQNKAERQNDILVKYRHMSVPPESSAWSHPQFEK
notes: The entry already holds the mutations and the StrepII tag; also called Pro-CP1-Eco-(Mutant-StrepII(C)); monomeric pore
Question: Does B4 bind [11]?
Answer: binds

B5: CsgF-(1-30) synthetic peptide (peptide)
peptide: GTMTFQFRNPNFGGNPNNGAFLLNSAQAQN
notes: Range counted on mature CsgF; also called mature peptide of CsgF 1:30
Question: Does B5 bind [1]?
Answer: binds

B6: E. coli CsgF (mature) with C-terminal 6x histidine tag (other)
chain: GTMTFQFRNPNFGGNPNNGAFLLNSAQAQNSYKDPSYNDDFGIETPSALDNFTQAIQSQILGGLLSNINTGKPGRMVTNDYIVDIANRDGQLQLNVTDRKTGQTSTIQVSGLQNNSTDFHHHHHH
notes: also called CsgF-His; CsgF-his
Question: Does B6 bind [12]?
Answer: binds

B7: CsgF truncated at position 35 by TEV protease cleavage, with ENLYFQ left at the cleavage site (peptide)
peptide: GTMTFQFRNPNFGGNPNNGAFLLNSAQAQNSYKDPENLYFQ
notes: also called CsgF truncated protein; No mutations at 17 position of CsgF
Question: Does B7 bind [13]?
Answer: binds

B8: CsgF N17S truncated at position 35 by TEV protease cleavage, with ENLYFQ left at the cleavage site (peptide)
peptide: GTMTFQFRNPNFGGNPSNGAFLLNSAQAQNSYKDPENLYFQ
notes: also called N175 mutation in CsgF (sic, N17S)
Question: Does B8 bind [13]?
Answer: binds

Reference: patent US20220056517A1 (OXFORD NANOPORE TECHNOLOGIES, published 2022)
